# Where a chain is given by its changes, count along the chain named.
# T1: BCMA (UniProt Q02223 1-184, limits assumed)
# T1 sequence (looked up): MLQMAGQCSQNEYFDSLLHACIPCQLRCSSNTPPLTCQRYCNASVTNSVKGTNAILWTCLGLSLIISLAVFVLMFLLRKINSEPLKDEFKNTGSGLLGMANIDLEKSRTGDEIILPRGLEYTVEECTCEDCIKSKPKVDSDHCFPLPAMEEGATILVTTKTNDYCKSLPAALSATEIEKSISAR
# T2: Cyno NKG2d (NKGW2.001) (cynomolgus monkey, UniProt P61252 80-216, limits assumed)
# T2 sequence (looked up): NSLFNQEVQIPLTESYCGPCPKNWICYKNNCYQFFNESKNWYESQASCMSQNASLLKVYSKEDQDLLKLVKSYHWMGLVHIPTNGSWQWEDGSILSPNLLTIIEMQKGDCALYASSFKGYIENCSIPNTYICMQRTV
# T3: NKGW1 (human NKG2d80-216 extracellular region with N-term hexahistidine tag) (human, UniProt P26718 80-216)
# T3 construct: also called human NKG2d (NKGW1)
# T3 sequence: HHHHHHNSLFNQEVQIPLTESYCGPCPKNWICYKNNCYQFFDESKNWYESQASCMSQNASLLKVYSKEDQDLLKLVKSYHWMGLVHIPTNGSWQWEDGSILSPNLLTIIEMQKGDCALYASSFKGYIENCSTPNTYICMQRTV
# B1: NG2BB9 (bispecific antibody, human IgG1, kappa)
# heavy: EVQLVQSGAEVKKPGESLKISCKGSGYSFTSYWIGWVRQMPGKGLEWMGIIYPGDSYTRYSPSFQGQVTISADKSISTAYLQWSSLKASDTAMYYCARGGVSASGNYRALDYWGQGTLVTVSSASTKGPSVFPLAPSSKSTSGGTAALGCLVKDYFPEPVTVSWNSGALTSGVHTFPAVLQSSGLYSLSSVVTVPSSSLGTQTYICNVNHKPSNTKVDKKVEPKSCDKTHTCPPCPAPELLGGPSVFLFPPKPKDTLMISRTPEVTCVVVDVSHEDPEVKFNWYVDGVEVHNAKTKPREEQYNSTYRVVSVLTVLHQDWLNGKEYKCKVSNKALPAPIEKTISKAKGQPREPQVYVYPPSREEMTKNQVSLTCLVKGFYPSDIAVEWESNGQPENNYKTTPPVLDSDGSFALVSKLTVDKSRWQQGNVFSCSVMHEALHNHYTQKSLSLSPGK
# light: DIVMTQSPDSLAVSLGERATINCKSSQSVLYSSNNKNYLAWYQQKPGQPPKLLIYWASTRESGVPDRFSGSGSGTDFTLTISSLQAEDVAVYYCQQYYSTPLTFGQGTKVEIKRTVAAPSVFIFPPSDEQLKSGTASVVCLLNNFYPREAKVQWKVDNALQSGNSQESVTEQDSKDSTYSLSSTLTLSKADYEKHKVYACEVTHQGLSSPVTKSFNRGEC
# chain: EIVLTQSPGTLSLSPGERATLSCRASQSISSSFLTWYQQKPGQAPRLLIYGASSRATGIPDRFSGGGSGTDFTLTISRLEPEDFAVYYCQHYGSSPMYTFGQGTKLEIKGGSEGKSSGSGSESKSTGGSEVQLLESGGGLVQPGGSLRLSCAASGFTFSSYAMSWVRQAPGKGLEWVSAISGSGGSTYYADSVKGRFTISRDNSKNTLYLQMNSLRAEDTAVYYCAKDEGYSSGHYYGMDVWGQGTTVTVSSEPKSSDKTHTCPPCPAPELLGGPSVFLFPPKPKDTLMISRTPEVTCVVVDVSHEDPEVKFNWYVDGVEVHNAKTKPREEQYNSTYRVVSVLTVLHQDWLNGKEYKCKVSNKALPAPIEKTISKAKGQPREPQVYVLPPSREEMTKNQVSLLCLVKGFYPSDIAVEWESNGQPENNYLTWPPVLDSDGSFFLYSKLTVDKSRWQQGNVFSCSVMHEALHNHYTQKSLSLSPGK
# B2: NG2GB24 (bispecific antibody, human IgG1, kappa)
# heavy: B1 heavy
# light: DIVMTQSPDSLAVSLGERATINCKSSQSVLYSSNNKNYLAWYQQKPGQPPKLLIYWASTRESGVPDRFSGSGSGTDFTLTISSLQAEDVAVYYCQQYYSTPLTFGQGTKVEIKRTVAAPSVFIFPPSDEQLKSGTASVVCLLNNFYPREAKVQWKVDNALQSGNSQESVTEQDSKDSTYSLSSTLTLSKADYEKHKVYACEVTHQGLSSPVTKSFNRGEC
# chain: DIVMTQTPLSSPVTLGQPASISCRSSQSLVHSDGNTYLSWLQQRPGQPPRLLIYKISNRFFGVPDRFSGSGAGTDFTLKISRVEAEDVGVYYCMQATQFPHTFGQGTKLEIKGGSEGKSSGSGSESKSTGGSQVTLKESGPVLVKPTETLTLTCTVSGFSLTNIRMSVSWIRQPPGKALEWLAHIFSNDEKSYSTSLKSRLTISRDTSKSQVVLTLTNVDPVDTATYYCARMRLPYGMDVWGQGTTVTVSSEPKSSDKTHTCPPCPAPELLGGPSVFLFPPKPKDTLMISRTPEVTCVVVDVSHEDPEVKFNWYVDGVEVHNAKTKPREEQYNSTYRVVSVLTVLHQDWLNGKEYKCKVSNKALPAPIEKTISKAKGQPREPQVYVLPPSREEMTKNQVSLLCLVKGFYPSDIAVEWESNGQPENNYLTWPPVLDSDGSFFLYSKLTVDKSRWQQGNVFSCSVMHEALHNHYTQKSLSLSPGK
# B3: N46BB4 (bispecific antibody, human IgG1, kappa)
# heavy: QLQLQESGPGPVRPSETLSLTCTVSGDSIRSSSYYWGWIRQPPGKGLDWIGSIYYTGSTYYNPSLMSRVTISVDTSKNQFSLKLSSVTAADTAVYYCASPGYSSGWSIDYWGQGTLVTVSSASTKGPSVFPLAPSSKSTSGGTAALGCLVKDYFPEPVTVSWNSGALTSGVHTFPAVLQSSGLYSLSSVVTVPSSSLGTQTYICNVNHKPSNTKVDKKVEPKSCDKTHTCPPCPAPELLGGPSVFLFPPKPKDTLMISRTPEVTCVVVDVSHEDPEVKFNWYVDGVEVHNAKTKPREEQYNSTYRVVSVLTVLHQDWLNGKEYKCKVSNKALPAPIEKTISKAKGQPREPQVYVYPPSREEMTKNQVSLTCLVKGFYPSDIAVEWESNGQPENNYKTTPPVLDSDGSFALVSKLTVDKSRWQQGNVFSCSVMHEALHNHYTQKSLSLSPGK
# light: DIQLTQSPSFLSASVGDRVTITCRASQGISSYLAWYQQKPGKAPKLLIYVASTLQSGVPSRFSGSGSGTEFTLTISSLQPEDFATYYCQQLNSYPRMTFGGGTKVEIKRTVAAPSVFIFPPSDEQLKSGTASVVCLLNNFYPREAKVQWKVDNALQSGNSQESVTEQDSKDSTYSLSSTLTLSKADYEKHKVYACEVTHQGLSSPVTKSFNRGEC
# chain: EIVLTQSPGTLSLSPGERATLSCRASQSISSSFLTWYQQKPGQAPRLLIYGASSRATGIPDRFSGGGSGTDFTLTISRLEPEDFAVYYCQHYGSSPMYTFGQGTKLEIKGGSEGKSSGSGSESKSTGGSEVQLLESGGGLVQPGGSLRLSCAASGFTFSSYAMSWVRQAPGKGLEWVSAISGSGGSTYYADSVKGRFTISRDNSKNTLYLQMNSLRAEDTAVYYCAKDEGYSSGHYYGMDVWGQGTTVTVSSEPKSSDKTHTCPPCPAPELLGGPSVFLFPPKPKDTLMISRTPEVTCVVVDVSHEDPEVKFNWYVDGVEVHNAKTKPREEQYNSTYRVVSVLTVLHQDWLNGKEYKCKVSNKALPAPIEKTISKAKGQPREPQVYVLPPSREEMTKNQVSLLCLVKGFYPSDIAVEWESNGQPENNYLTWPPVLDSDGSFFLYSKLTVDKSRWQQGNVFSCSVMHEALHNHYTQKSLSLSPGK
# B4: N46BB10 (bispecific antibody, human IgG1, kappa)
# heavy: B3 heavy with V354T, Y355L, T370W, A409F, V411Y, H439R, Y440F
# light: B3 light
# chain: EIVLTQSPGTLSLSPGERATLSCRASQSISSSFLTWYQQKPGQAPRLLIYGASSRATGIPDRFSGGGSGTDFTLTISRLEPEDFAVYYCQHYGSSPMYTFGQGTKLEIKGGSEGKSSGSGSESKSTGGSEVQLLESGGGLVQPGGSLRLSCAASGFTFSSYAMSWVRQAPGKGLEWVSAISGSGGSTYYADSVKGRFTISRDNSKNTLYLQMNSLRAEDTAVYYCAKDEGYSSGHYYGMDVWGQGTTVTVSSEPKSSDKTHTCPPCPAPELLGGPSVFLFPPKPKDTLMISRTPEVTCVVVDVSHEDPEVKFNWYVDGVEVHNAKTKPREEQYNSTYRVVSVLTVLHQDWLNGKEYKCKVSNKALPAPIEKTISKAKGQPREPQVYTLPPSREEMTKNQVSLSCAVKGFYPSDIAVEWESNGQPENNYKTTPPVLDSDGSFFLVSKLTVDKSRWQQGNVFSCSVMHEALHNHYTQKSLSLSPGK
# B5: N46BB10.AFU (bispecific antibody, human IgG1, kappa)
# heavy: B3 heavy with V354T, Y355L, T370W, A409F, V411Y, H439R, Y440F
# light: B3 light
# chain: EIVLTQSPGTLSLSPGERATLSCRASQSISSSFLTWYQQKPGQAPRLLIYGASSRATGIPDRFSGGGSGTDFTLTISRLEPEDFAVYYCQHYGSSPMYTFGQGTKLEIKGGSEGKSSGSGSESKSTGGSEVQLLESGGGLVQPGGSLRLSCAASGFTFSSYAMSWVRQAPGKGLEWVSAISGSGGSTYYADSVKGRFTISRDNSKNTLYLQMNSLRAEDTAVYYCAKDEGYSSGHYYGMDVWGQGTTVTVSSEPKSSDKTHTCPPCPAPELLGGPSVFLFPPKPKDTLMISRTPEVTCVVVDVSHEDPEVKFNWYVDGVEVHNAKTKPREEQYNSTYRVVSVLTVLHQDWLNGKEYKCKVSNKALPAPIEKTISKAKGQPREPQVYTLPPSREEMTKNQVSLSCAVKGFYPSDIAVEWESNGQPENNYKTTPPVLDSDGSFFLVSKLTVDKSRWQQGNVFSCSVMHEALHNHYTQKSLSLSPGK
# B6: N46BB14 (bispecific antibody, human IgG1, kappa, L234A L235A)
# heavy: B3 heavy with L238A, L239A, D269S, V354T, Y355L, T370W, A409F, V411Y, H439R, Y440F
# light: B3 light
# chain: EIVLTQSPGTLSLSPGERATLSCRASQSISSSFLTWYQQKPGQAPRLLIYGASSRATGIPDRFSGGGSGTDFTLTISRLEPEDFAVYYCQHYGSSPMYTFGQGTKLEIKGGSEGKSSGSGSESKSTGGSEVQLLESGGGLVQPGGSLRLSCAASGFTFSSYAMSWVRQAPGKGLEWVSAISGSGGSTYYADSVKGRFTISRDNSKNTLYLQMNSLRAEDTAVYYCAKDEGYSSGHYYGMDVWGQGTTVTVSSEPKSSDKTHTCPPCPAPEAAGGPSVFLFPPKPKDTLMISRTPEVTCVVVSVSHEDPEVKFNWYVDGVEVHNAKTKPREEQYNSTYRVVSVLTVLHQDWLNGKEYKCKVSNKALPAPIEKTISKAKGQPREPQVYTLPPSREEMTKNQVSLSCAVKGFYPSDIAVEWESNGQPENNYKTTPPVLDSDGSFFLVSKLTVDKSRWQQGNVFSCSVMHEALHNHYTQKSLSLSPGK
# B7: NKGB125 (antibody, human IgG1, V domains shown)
# VH: EVQLLESGGGLVQPGGSLRLSCAASGFTFSIYAMTWVRQAPGKGLEWVSIISGSGDHTFYADSVKGRFTISRDNSRNTLYLQMDSLRAEDTAVYYCAKEGKWVQLSHFANWGQGTLVTVSS
# VL: SYVLTQPPSVSVAPGQTARITCGGNNIGSKSVHWYQQKAGQAPVLVVYDDSDRPSGIPERFSGSNSGNTATLTISRVEAGDEADYYCQVWDGRSDHVVFGGGTKLTVL
# notes: OmniRat hybridoma clone; v-regions cloned into human IgG1 sigma and lambda constant regions; also called NKGB125.002; NKGY1_045_F04
# B8: NKGB83 (antibody, human IgG1, V domains shown)
# VH: EVQLVQSGAEVKKPGESLKISCKGSGYSFTSYWIGWVRQMPGKGLEWMGIIYPGDSYTRYSPSFQGQVTISADKSISTAYLQWSSLKASDTAMYYCARGGVSASGNYRALDYWGQGTLVTVSS
# VL: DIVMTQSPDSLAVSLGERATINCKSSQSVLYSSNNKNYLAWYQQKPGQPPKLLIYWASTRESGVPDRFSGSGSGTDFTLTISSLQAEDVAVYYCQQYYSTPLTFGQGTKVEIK
# notes: phage display panel; v-regions cloned into silent human IgG1/kappa constant regions; also called NKGB83.002
# B9: N46B105 (antibody, V domains shown)
# VH: QLQLQESGPGPVRPSETLSLTCTVSGDSIRSSSYYWGWIRQPPGKGLDWIGSIYYTGSTYYNPSLMSRVTISVDTSKNQFSLKLSSVTAADTAVYYCASPGYSSGWSIDYWGQGTLVTVSS
# VL: DIQLTQSPSFLSASVGDRVTITCRASQGISSYLAWYQQKPGKAPKLLIYVASTLQSGVPSRFSGSGSGTEFTLTISSLQPEDFATYYCQQLNSYPRMTFGGGTKVEIK
# notes: also called VR000044289
# B10: NG2GB19 (bispecific antibody, human IgG1, lambda)
# heavy: not shown
# light: SYVLTQPPSVSVAPGQTARITCGGNNIGSKSVHWYQQKAGQAPVLVVYDDSDRPSGIPERFSGSNSGNTATLTISRVEAGDEADYYCQVWDGRSDHVVFGGGTKLTVLGQPKAAPSVTLFPPSSEELQANKATLVCLISDFYPGAVTVAWKADSSPVKAGVETTTPSKQSNNKYAASSYLSLTPEQWKSHRSYSCQVTHEGSTVEKTVAPTECS
# B11: NG2BB10 (bispecific antibody, human IgG1, lambda)
# heavy: EVQLLESGGGLVQPGGSLRLSCAASGFTFSIYAMTWVRQAPGKGLEWVSIISGSGDHTFYADSVKGRFTISRDNSRNTLYLQMDSLRAEDTAVYYCAKEGKWVQLSHFANWGQGTLVTVSSASTKGPSVFPLAPSSKSTSGGTAALGCLVKDYFPEPVTVSWNSGALTSGVHTFPAVLQSSGLYSLSSVVTVPSSSLGTQTYICNVNHKPSNTKVDKKVEPKSCDKTHTCPPCPAPELLGGPSVFLFPPKPKDTLMISRTPEVTCVVVDVSHEDPEVKFNWYVDGVEVHNAKTKPREEQYNSTYRVVSVLTVLHQDWLNGKEYKCKVSNKALPAPIEKTISKAKGQPREPQVYVYPPSREEMTKNQVSLTCLVKGFYPSDIAVEWESNGQPENNYKTTPPVLDSDGSFALVSKLTVDKSRWQQGNVFSCSVMHEALHNHYTQKSLSLSPGK
# light: B10 light
# chain: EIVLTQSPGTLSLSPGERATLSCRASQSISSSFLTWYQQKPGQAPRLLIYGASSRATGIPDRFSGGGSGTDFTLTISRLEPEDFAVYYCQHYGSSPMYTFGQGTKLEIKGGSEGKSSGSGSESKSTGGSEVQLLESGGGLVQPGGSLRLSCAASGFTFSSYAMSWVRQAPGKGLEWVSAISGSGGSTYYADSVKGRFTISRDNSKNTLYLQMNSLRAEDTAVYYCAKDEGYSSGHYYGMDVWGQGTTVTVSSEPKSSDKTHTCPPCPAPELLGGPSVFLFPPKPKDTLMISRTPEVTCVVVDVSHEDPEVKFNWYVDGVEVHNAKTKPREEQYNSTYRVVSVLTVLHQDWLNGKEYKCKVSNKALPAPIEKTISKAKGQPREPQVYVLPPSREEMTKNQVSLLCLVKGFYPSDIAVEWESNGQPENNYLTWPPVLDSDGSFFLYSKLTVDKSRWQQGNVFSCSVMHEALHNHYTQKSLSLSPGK
# B12: NG2GB23 (bispecific antibody, human IgG1, lambda)
# heavy: B11 heavy
# light: B10 light
# chain: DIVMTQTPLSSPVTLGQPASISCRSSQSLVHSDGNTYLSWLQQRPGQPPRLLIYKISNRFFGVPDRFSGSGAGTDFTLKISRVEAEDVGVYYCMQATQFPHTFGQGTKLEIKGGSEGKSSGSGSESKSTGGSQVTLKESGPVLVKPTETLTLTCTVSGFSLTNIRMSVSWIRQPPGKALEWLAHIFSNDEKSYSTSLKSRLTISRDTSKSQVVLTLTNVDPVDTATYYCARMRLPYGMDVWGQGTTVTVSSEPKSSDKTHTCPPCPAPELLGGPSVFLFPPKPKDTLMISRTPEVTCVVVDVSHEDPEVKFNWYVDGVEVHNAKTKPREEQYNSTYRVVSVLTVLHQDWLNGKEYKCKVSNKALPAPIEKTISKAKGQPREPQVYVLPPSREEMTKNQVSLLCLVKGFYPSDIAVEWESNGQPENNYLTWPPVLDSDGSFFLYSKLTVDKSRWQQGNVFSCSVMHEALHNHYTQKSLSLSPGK
# Legend:
# BCMA = target: T1, BCMA; test: cell-based or functional assay
# GPRC5d = GPRC5d (UniProt Q9NZD1 1-345, limits assumed); test: cell-based or functional assay
# [1] = target: NKp46 on NKL cells / NK cells (human, UniProt O76036 22-304); test: cell-based or functional assay
# Cyno NKG2d (NKGW2.001) = target: T2, Cyno NKG2d (NKGW2.001); test: surface plasmon resonance
# [2] = target: T3, NKGW1 (human NKG2d80-216 extracellular …); test: surface plasmon resonance
# N46W3 (NKp46 D1) = target: T4, N46W3 (NKp46 D1) (UniProt O76036 22-120, limits assumed); test: binding kinetics, method not named
# T4 construct: domain: D1
# T4 sequence (O76036 22-120 limits assumed): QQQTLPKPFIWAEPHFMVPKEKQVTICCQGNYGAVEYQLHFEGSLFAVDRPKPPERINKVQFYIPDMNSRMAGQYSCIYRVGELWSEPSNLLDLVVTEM
# GPRC5d, sequence (Q9NZD1 whole entry): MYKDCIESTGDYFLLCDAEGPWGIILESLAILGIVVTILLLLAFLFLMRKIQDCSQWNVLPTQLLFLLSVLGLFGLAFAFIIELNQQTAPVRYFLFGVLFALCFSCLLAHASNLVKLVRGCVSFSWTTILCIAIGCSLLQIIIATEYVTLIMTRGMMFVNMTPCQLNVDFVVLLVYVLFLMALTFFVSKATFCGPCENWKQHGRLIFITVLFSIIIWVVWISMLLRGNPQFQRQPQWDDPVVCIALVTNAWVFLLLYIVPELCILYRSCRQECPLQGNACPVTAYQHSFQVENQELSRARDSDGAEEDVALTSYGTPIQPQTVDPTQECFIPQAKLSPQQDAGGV
# NKp46 on NKL cells / NK cells, sequence (O76036 22-304): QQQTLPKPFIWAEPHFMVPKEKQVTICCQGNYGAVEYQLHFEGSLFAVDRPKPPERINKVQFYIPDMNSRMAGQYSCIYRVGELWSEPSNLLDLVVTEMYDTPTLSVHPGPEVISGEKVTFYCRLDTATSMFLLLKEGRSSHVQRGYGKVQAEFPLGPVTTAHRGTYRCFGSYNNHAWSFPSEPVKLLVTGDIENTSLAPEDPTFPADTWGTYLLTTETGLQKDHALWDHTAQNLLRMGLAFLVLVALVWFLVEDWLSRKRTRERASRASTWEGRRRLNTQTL
binder,measurement,setting,value
B1,"IC50 for BsAb cytotoxicity, H929/GFP target cells with PBMC effectors",BCMA,0.00722 nM
B2,"IC50 for BsAb cytotoxicity, H929/GFP target cells with PBMC effectors",GPRC5d,0.0144 nM
B3,"IC50 for BsAb cytotoxicity, H929/GFP target cells with PBMC effectors",BCMA,0.00153 nM
B4,"EC50 of cytotoxicity (hypoxia study, PBMC on MM1R/GFP cells)",[1],~0.07 nM
B5,"EC50 of cytotoxicity (hypoxia study, PBMC on MM1R/GFP cells)",[1],0.006 nM
B6,"EC50 of cytotoxicity (hypoxia study, PBMC on MM1R/GFP cells, 48-hour endpoint)",[1],~1.19 nM
B7,Kd,Cyno NKG2d (NKGW2.001),0.1 nM
same,koff,Cyno NKG2d (NKGW2.001),5.84e-05 s⁻¹
same,kon,Cyno NKG2d (NKGW2.001),571000 M⁻¹ s⁻¹
same,Kd,[2],0.05 nM
same,koff,[2],3.85e-05 s⁻¹
same,kon,[2],751000 M⁻¹ s⁻¹
B8,Kd,Cyno NKG2d (NKGW2.001),27.4 nM
same,koff,Cyno NKG2d (NKGW2.001),0.00212 s⁻¹
same,kon,Cyno NKG2d (NKGW2.001),77600 M⁻¹ s⁻¹
same,Kd,[2],8.2 nM
same,koff,[2],0.000941 s⁻¹
same,kon,[2],114000 M⁻¹ s⁻¹
B9,Kd,N46W3 (NKp46 D1),3.5 nM
B10,"IC50 for BsAb cytotoxicity, H929/GFP target cells with PBMC effectors",GPRC5d,0.0199 nM
B11,"IC50 for BsAb cytotoxicity, H929/GFP target cells with PBMC effectors",BCMA,0.0209 nM
B12,"IC50 for BsAb cytotoxicity, H929/GFP target cells with PBMC effectors",GPRC5d,0.00337 nM

# From patent US20240182582A1 (Janssen / Centocor, published 2024)
